Data set [1] addresses Abd-A;Exd (in Exd/Hth heterodimer);Hth (in heterodimer) (Drosophila melanogaster?;Drosophila …, UniProt P29555;P40427;O46339 261-590;1-376;1-487, ||). Kind of data set: EMSA; Abd-A 37.5-300 nM with 75 nM Exd/Hth; highly cooperative, third slower complex; Native PAGE EMSA, probe 0.36 uM, triplicate; buffer, salt, pH and temperature not given (as previously described). Further probes (single/paired sites, Hox point mutants; percent bound) only in S4 and S5 Figs, not in the material, number of rows unknown. The conditions noted are these: protein: recombinant;recombinant;recombinant; tags: His;untagged;His; copies: 1;1;1. A general note: In EMSA bound probe runs differently from free probe, usually more slowly.

In data set [2] the target is T1, Exd51A (ExdN51A);Hth (in heterodimer) (Drosophila melanogaster?;Drosophila …, UniProt P40427;O46339 1-376;1-487, N291A|).
T1 sequence 1: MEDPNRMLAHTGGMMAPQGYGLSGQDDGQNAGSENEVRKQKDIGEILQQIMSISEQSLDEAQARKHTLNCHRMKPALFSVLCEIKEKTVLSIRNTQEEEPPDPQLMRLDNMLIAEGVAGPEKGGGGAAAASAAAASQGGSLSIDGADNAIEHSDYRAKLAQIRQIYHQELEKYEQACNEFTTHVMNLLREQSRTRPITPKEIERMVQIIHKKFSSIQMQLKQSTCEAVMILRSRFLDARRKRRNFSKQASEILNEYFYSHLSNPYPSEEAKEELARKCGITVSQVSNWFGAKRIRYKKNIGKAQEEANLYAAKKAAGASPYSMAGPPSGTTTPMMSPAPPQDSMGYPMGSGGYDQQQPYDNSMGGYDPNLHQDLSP
T1 sequence 2: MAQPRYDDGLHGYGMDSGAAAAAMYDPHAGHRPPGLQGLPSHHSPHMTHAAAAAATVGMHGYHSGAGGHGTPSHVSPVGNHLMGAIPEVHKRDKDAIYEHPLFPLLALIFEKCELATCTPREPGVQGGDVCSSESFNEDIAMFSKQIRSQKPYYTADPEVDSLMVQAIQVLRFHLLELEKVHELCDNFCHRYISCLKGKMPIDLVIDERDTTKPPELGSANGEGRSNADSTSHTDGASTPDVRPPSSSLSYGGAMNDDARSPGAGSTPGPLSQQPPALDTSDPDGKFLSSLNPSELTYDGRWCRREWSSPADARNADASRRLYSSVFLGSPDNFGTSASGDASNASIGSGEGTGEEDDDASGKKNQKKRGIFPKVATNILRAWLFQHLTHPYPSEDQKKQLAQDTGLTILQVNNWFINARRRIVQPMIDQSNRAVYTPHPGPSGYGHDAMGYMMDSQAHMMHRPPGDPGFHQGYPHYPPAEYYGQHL
Kind of data set: EMSA; 200 nM heterodimer, no Abd-A; no significant binding; Native PAGE EMSA, probe 0.36 uM, triplicate; buffer, salt, pH and temperature not given (as previously described). Further probes (single/paired sites, Hox point mutants; percent bound) only in S4 and S5 Figs, not in the material, number of rows unknown. The conditions noted are these: protein: recombinant;recombinant; tags: ;His; copies: 1;1.

In data set [3] the target is Abd-A;Exd51A (ExdN51A);Hth (in heterodimer) (Drosophila melanogaster?;Drosophila …, UniProt P29555;P40427;O46339 261-590;1-376;1-487, |N291A|). The data set can be described thus: EMSA; Abd-A 37.5-300 nM with 200 nM ExdN51A/Hth; significant cooperative complex; Native PAGE EMSA, probe 0.36 uM, triplicate; buffer, salt, pH and temperature not given (as previously described). Further probes (single/paired sites, Hox point mutants; percent bound) only in S4 and S5 Figs, not in the material, number of rows unknown. The conditions noted are these: protein: recombinant;recombinant;recombinant; tags: His;;His; copies: 1;1;1.
Abd-A;Exd51A (ExdN51A);Hth (in heterodimer), sequence (P29555 261-590, stated change not applied, one chain of several): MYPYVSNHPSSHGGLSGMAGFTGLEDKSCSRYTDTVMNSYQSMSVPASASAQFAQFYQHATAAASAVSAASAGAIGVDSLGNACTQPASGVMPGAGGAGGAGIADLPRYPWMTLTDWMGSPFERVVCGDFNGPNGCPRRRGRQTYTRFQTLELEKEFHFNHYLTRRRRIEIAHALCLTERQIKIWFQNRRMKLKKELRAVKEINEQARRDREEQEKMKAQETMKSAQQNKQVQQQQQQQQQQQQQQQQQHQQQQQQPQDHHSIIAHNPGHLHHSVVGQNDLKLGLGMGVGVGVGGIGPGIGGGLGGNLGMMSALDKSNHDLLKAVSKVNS

Abd-A;Exd (in Exd/Hth heterodimer);Hth (in heterodimer), sequence (P29555 261-590, one chain of several): as the sequence (P29555 261-590, stated change not applied, one chain of several) above

B1: DCRE wild-type full-length probe (dsDNA)
DNA 1: GGAATTTATGTCCGACAATATTTGGGAAATTAAATCATTCCCGCGGACAGTTTTATAGTGCGGGCGTGGC
DNA 2: GCCACGCCCGCACTATAAAACTGTCCGCGGGAATGATTTAATTTCCCAAATATTGTCGGACATAAATTCC
As for B1, the figures for the binding result in data set [1], in data set [2] and in data set [3] were “binds”, “no binding” and “binds”, respectively.
